Consider two substances from patent EP2877200B1.

The target of test [1] is human Type 1 IGF receptor (human) (UniProt P08069). Put plainly: competitive displacement of 125I-Tyr31 IGF-I from IGF-1R.
The target is the same in test [2]. Description: competitive displacement of 125I-Tyr31 IGF-I from IGF-1R (different receptor preparation from Tables 1A-1C).

Turning to “α-D-mannopyranoside-O^β-Thr^B30-[His^A4, His^A8, Gly^A21]-insulin (ligand)”, in test [1], the dissociation constant Kd came to 41.8 nM.
Consider “[Lys^B28, Pro^B29]-insulin (ligand; other documents disagree on this pair)”, for which the dissociation constant (Kd) in test [2] is 3.86 nM; in test [1], 8.39 nM.
